Molecular target: T1, SARS-CoV-2 Spike protein peptide on HLA-DPA1*01:03 / HLA-DPB1*04:01 (human)
T1 peptide: TFEYVSQPFLMDLE
Assay: multimer staining

B1: TCR6.3 (TCR)
alpha TRAV35 TRAJ42 CDR3: CAGMNYGGSQGNLIF
beta TRBV6-3 TRBJ1-2 CDR3: CASSYRGAYGYTF
- binding result: recognises

B2: TCR4.1 (TCR)
alpha TRAV35 TRAJ42 CDR3: CAGMNYGGSQGNLIF
beta TRBV4-1 TRBJ1-2 CDR3: CASSQGVGYTF
- binding result: recognises

— US20250116673A1 (published 2025)
